Experimental data as given in patent US20260092093A1 (TJ BIOPHARMA SHANGHAI, published 2026).
Positions count from the first letter of the chain named.

Key:
[1] = biological target: T1, hIL-18Rα ECD-Fc fusion protein (human, UniProt Q13478 22-329); test: BLI (Octet RED96), hIL-18Rα ECD-Fc on Protein A sensor
T1 construct: extracellular domain; captured on Protein A sensor
T1 sequence (looked up): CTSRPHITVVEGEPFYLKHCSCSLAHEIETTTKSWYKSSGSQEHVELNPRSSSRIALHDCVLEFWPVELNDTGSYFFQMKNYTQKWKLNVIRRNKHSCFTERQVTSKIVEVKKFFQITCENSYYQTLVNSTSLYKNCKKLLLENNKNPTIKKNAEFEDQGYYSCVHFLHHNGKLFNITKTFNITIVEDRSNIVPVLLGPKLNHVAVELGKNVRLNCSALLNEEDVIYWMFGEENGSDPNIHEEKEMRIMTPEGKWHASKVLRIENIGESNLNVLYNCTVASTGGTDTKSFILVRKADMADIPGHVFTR
Method: The affinities of IL-18 variant polypeptides for hIL-18Rα were assessed by Biolayer Interferometry (BLI) on Octet RED96 using Protein A sensor coated with hIL-18Rα ECD-Fc fusion protein, and WT hIL-18 was used as a control.

[2] = biological target: T2, recombinant hIL-18Rα extracellular domain (human, UniProt Q13478 22-329, biotin label (selection) or fluorescent probe (single-clone FACS), sites not given); test: single-clone FACS, yeast display, 10 nM labelled hIL-18Rα ECD
T2 construct: extracellular domain; also called hIL-18Rα ECD; hIL-18Rα-ECD
T2 sequence (looked up): T1 sequence (looked up)
Method: Following the screens described in Example 2, single clone FACS analysis was performed to verify the binding of selected yeast cell surface-expressed IL-18 variant polypeptides from Round 4 and Round 5 to 10 nM hIL-18Rα-ECD. Briefly, each yeast clone at the same density was incubated with 10 nM IL-18Rα-ECD labeled by fluorescent probe, respectively, followed by washing step. Then the ratio of fluorescent positive IL-18Rα ECD binding yeasts in the population of each clone were analyzed.

B1: IL-18 variant polypeptide LM1 (ligand)
chain: YFPKLKSKLSVIRNLNDQVLFIDQGNRPLFEDMTDSDCRDNAPRTIFIISMYKGSGARGMAVTISVKCEKISTLSCENKIISFKEMNPPDNIKDTKSDIIFFQRSVPGHDNKMQFESSSYEGYFLACEKERDLFKLILKKEDELGDRSIMFTVQNED
notes: soluble, E. coli-made
Kd [1]: 86.2 nM | Response (nm) [1]: 0.0618 nm | koff [1]: 0.047 s⁻¹ | kon [1]: 545000 M⁻¹ s⁻¹

B2: IL-18 variant polypeptide LM2 (ligand)
chain: B1 chain with K6R, G54L, A57S, N91V
notes: soluble, E. coli-made
Kd [1]: 37.9 nM | Response (nm) [1]: 0.0338 nm | koff [1]: 0.052 s⁻¹ | kon [1]: 1.37e+06 M⁻¹ s⁻¹

B3: IL-18 variant polypeptide LM3 (ligand)
chain: B1 chain with K6R, V11I, N91G
notes: soluble, E. coli-made
Kd [1]: 14.6 nM | Response (nm) [1]: 0.0422 nm | koff [1]: 0.0328 s⁻¹ | kon [1]: 2.24e+06 M⁻¹ s⁻¹

B4: IL-18 variant polypeptide LM4 (ligand)
chain: B1 chain with G54H, G56Y, A57S
notes: soluble, E. coli-made
Kd [1]: 4.17 nM | Response (nm) [1]: 0.0262 nm | koff [1]: 0.0169 s⁻¹ | kon [1]: 4.06e+06 M⁻¹ s⁻¹

B5: IL-18 variant polypeptide LM5 (ligand)
chain: B1 chain with P3G, K6R, G54W, G56S, A57Q
notes: soluble, E. coli-made
Kd [1]: 19.6 nM | Response (nm) [1]: 0.038 nm | koff [1]: 0.0411 s⁻¹ | kon [1]: 2.1e+06 M⁻¹ s⁻¹

B6: IL-18 variant polypeptide M6 (ligand)
chain: B1 chain with K6R, G54W, G56T, A57P, N91V, R104T
% of fluorescence positive cells [2]: 79%

B7: IL-18 variant polypeptide M8 (ligand)
chain: B1 chain with K6R, G54W, G56P, N91A, R104L
% of fluorescence positive cells [2]: 73.4%

B8: IL-18 variant polypeptide M36 (ligand)
chain: B1 chain with K6S, G54A, G56D, A57Q, N91G
% of fluorescence positive cells [2]: 14.8%

B9: IL-18 variant polypeptide MM1 (ligand)
chain: B1 chain with G54L, G56T, A57Q, N91V
% of fluorescence positive cells [2]: 91.6%

B10: IL-18 variant polypeptide MM4 (ligand)
chain: B1 chain with K6R, G54L, G56T, A57I, N91G
notes: soluble, E. coli-made
Kd [1]: 9.82 nM | Response (nm) [1]: 0.0238 nm | koff [1]: 0.0375 s⁻¹ | kon [1]: 3.82e+06 M⁻¹ s⁻¹

B11: IL-18 variant polypeptide MM5 (ligand)
chain: B1 chain with P3G, K6G, G54L, G56T, A57E, N91G, R104S
notes: soluble, E. coli-made
Kd [1]: 104 nM | Response (nm) [1]: 0.0326 nm | koff [1]: 0.077 s⁻¹ | kon [1]: 743000 M⁻¹ s⁻¹

B12: IL-18 variant polypeptide WM2 (ligand)
chain: B1 chain with K6R, G54D, G56Q, A57P, K96E
notes: soluble, E. coli-made
Response (nm) [1]: < 0.02 nm

B13: IL-18 variant polypeptide WM6 (ligand)
chain: B1 chain with P3D, G54D, G56Q, A57P, N91S
notes: soluble, E. coli-made
Kd [1]: 10.1 nM | Response (nm) [1]: 0.304 nm | koff [1]: 0.00199 s⁻¹ | kon [1]: 196000 M⁻¹ s⁻¹

B14: IL-18 variant polypeptide WM8 (ligand)
chain: B1 chain with K6R, G54D, G56Q, A57P, N91S
notes: soluble, E. coli-made
Response (nm) [1]: < 0.02 nm

B15: IL-18 variant polypeptide WM10 (ligand)
chain: B1 chain with G54D, G56Q, A57P, N91S
notes: soluble, E. coli-made
Kd [1]: 12.9 nM | Response (nm) [1]: < 0.02 nm | koff [1]: 0.007 s⁻¹ | kon [1]: 543000 M⁻¹ s⁻¹

B16: SEQ ID NO 5 (ligand)
chain: B1 chain with K6R, G54H, G56T, A57V, N91V
% of fluorescence positive cells [2]: 95.6%

B17: SEQ ID NO 6 (ligand)
chain: B1 chain with K6S, G54W, G56P, A57W, N91D
% of fluorescence positive cells [2]: 95.5%

B18: SEQ ID NO 7 (ligand)
chain: B1 chain with G54H, G56T, A57V, N91V
% of fluorescence positive cells [2]: 95.5%

B19: SEQ ID NO 10 (ligand)
chain: B1 chain with P3T, G54W, G56S, A57D, N91A, R104V
% of fluorescence positive cells [2]: 94.8%

B20: SEQ ID NO 13 (ligand)
chain: B1 chain with K6R, G54W, G56K, A57T, N91V, R104Y
% of fluorescence positive cells [2]: 93.2%

B21: SEQ ID NO 14 (ligand)
chain: B1 chain with K6R, G54Y, G56T, N91V, R104H
% of fluorescence positive cells [2]: 93.2%

B22: SEQ ID NO 15 (ligand)
chain: B1 chain with K6R, G54S, G56R, A57G, N91V, R104T
% of fluorescence positive cells [2]: 93%

B23: SEQ ID NO 16 (ligand)
chain: B1 chain with K6T, G54H, G56T, A57Y, N91A, N155K
% of fluorescence positive cells [2]: 93%

B24: SEQ ID NO 18 (ligand)
chain: B1 chain with F2L, K6R, G54W, G56T, A57S, N91S, R104S, N155K
% of fluorescence positive cells [2]: 92%

B25: SEQ ID NO 19 (ligand)
chain: B1 chain with K6R, G54W, G56Y, A57P, N91S, R104S
% of fluorescence positive cells [2]: 97.9%

B26: SEQ ID NO 20 (ligand)
chain: B1 chain with G54F, G56T, A57V, N91G, R104H
% of fluorescence positive cells [2]: 91.7%

B27: SEQ ID NO 23 (ligand)
chain: B1 chain with A57T, N91A
% of fluorescence positive cells [2]: 90.8%

B28: SEQ ID NO 24 (ligand)
chain: B1 chain with P3D, K6G, G54W, G56P, A57W
% of fluorescence positive cells [2]: 90.1%

B29: SEQ ID NO 25 (ligand)
chain: B1 chain with G54L, A57V, N91T
% of fluorescence positive cells [2]: 90%

B30: SEQ ID NO 29 (ligand)
chain: B1 chain with K6T, G54H, G56Y, N91V
% of fluorescence positive cells [2]: 89.7%

B31: SEQ ID NO 30 (ligand)
chain: B1 chain with G54H, G56I, A57H, N91V, R104V
% of fluorescence positive cells [2]: 89.7%

B32: SEQ ID NO 31 (ligand)
chain: B1 chain with G54W, G56A, A57R, N91P, R104S
% of fluorescence positive cells [2]: 89.5%

B33: SEQ ID NO 32 (ligand)
chain: B1 chain with K6R, G54H, G56S, A57R, N91I, R104Y
% of fluorescence positive cells [2]: 88.9%

B34: SEQ ID NO 33 (ligand)
chain: B1 chain with P3G, G54L, G56T, A57R, N91P
% of fluorescence positive cells [2]: 88.8%

B35: SEQ ID NO 34 (ligand)
chain: B1 chain with G54Q, G56T, A57W, N91C
% of fluorescence positive cells [2]: 88.6%

B36: SEQ ID NO 36 (ligand)
chain: B1 chain with K6R, G54W, G56R, A57P, N91S, R104Y
% of fluorescence positive cells [2]: 88.5%

B37: SEQ ID NO 37 (ligand)
chain: B1 chain with K6R, A57I, N91G
% of fluorescence positive cells [2]: 88.4%

B38: SEQ ID NO 40 (ligand)
chain: B1 chain with G54L, N91V
% of fluorescence positive cells [2]: 87.9%

B39: SEQ ID NO 42 (ligand)
chain: B1 chain with P3E, K6R, G54W, G56P, A57D, N91V, R104V
% of fluorescence positive cells [2]: 87.2%

B40: SEQ ID NO 45 (ligand)
chain: B1 chain with K6R, G54H, G56Y, A57G, N91A, R104T
% of fluorescence positive cells [2]: 86.1%

B41: SEQ ID NO 46 (ligand)
chain: B1 chain with K6G, G54H, G56D, A57P, N91V, R104M
% of fluorescence positive cells [2]: 84.9%

B42: SEQ ID NO 47 (ligand)
chain: B1 chain with K6R, G54L, G56T, A57V, N91G, R104H
% of fluorescence positive cells [2]: 84.7%

B43: SEQ ID NO 48 (ligand)
chain: B1 chain with P3F, G54P, G56P, A57P, N91T, R104Y
% of fluorescence positive cells [2]: 83.8%

B44: SEQ ID NO 51 (ligand)
chain: B1 chain with K6R, G54W, G56A, A57V, N91S, R104S
% of fluorescence positive cells [2]: 83.1%

B45: SEQ ID NO 52 (ligand)
chain: B1 chain with P3W, G54P, G56S, A57H, N91V, R104L
% of fluorescence positive cells [2]: 83%

B46: SEQ ID NO 53 (ligand)
chain: B1 chain with K6R, G54L, A57W, N91V
% of fluorescence positive cells [2]: 82.4%

B47: SEQ ID NO 57 (ligand)
chain: B1 chain with G54H, G56R, N91S, R104T
% of fluorescence positive cells [2]: 79%

B48: SEQ ID NO 60 (ligand)
chain: B1 chain with G54H, G56S, A57T, N91V, R104C
% of fluorescence positive cells [2]: 76.5%
